Here are results for 14 sequences from the Immune Epitope Database (IEDB).

One assay has as its target HLA-B*18:01. The assay is described as follows: IEDB peptide-MHC binding, purified MHC/direct/fluorescence; filed as Kd, often an IC50 or EC50 that approximates it; ≥ and ≤ were set here for values at or beyond the usual limits of such assays.
The next assay concerns the target HLA-A*32:01. The assay is described as follows: IEDB peptide-MHC binding, purified MHC/competitive/radioactivity; filed as Kd, often an IC50 or EC50 that approximates it; ≥ and ≤ were set here for values at or beyond the usual limits of such assays.
The target in assay [1] is HLA-B*57:01. The description is as above.
Assay [2] has as its target HLA-B*58:01. The assay is described as above.
Assay [3] has as its target HLA-A*31:01. The assay is described as above. The following applies: source organism: Dengue virus 2 Jamaica/1409/1983.
In assay [4] the target is HLA-B*15:01. The assay is described as follows: IEDB peptide-MHC binding, purified MHC/competitive/fluorescence; ≥ and ≤ were set here for values at or beyond the usual limits of such assays.
Another assay deals with HLA-A*24:02. Described as above.
In a further assay the target is HLA-B*44:02. The assay is described as follows: IEDB peptide-MHC binding, purified MHC/direct/fluorescence; filed as Kd, often an IC50 or EC50 that approximates it; ≥ and ≤ were set here for values at or beyond the usual limits of such assays.
Another assay deals with HLA-B*40:01. Described as above.
The target in assay [5] is HLA-A*02:01. The assay is described as follows: IEDB peptide-MHC binding, purified MHC/competitive/fluorescence; filed as Kd, often an IC50 or EC50 that approximates it; ≥ and ≤ were set here for values at or beyond the usual limits of such assays. The following applies: source organism: human gammaherpesvirus 4.
For another assay, the target named is HLA-A*02:03. The description is as above. The following applies: source organism: human gammaherpesvirus 4.
Assay [6] addresses HLA-A*02:01. The assay is described as follows: IEDB peptide-MHC binding, purified MHC/competitive/fluorescence; ≥ and ≤ were set here for values at or beyond the usual limits of such assays.
The target of assay [7] is HLA-A*11:01. The assay is described as above. Conditions: source organism: Zaire ebolavirus.
The target of assay [8] is HLA-A*02:01. The assay is described as follows: IEDB peptide-MHC binding, purified MHC/direct/fluorescence; filed as Kd, often an IC50 or EC50 that approximates it; ≥ and ≤ were set here for values at or beyond the usual limits of such assays.
Another assay concerns the target HLA-A*01:01. The description is as above.
A further assay has as its target HLA-B*27:05. The description is as above.
A further assay has as its target HLA-B*08:01. The description is as above. Conditions: source organism: Vibrio cholerae.
For another assay, the target named is HLA-A*69:01. The description is as above.
For a further assay, the target named is HLA-A*26:01. The description is as above. Conditions: source organism: Vibrio cholerae.
In assay [9] the target is HLA-B*58:01. Described as above.
The target of assay [10] is HLA-A*31:01. The assay is described as above.
The next assay deals with HLA-A*03:01. The description is as above.
Assay [11] concerns the target HLA-A*11:01. The assay is described as above.
The next assay addresses HLA-B*07:02. Described as above. Conditions: source organism: Vibrio cholerae.
In another assay the target is HLA-B*48:01. The description is as above. The following applies: source organism: Escherichia coli O157:H7.
The target in assay [12] is HLA-B*15:01. The assay is described as follows: IEDB peptide-MHC binding, purified MHC/competitive/fluorescence; filed as Kd, often an IC50 or EC50 that approximates it; ≥ and ≤ were set here for values at or beyond the usual limits of such assays. The following applies: source organism: Escherichia coli str. K-12 substr. DH10B.
For assay [13], the target named is HLA-B*57:01. Described as above. The following applies: source organism: Escherichia coli str. K-12 substr. DH10B.
In the next assay the target is HLA-B*15:17. The description is as above. Conditions: source organism: Escherichia coli str. K-12 substr. DH10B.
Where [14] appears, read: source organism: Dengue virus 3 Martinique/1243/1999.
Where [15] appears, read: source organism: Dengue virus 4 Dominica/814669/1981.
Where [16] appears, read: source organism: Dengue virus 2 Jamaica/1409/1983.
Where [17] appears, read: source organism: Vaccinia virus Copenhagen.
Setting [18] is: source organism: Orthohantavirus hantanense.
The mark [19] stands for this setting: source organism: Zaire ebolavirus.
[20] abbreviates: source organism: Vibrio cholerae.
Setting [21] is: source organism: Dengue virus 4 Philippines/H241/1956.
Setting [22] is: source organism: Escherichia coli O157:H7.
Where [23] appears, read: source organism: Vaccinia virus WR.

The term Kd denotes the equilibrium constant for the complex coming apart. On to VQGFIFFFL, for which the equilibrium dissociation constant (Kd) with HLA-B*18:01 (source organism: Yellow fever virus) was not below 5 µM.

In the case of RVMGITAEW, the results for the Kd with HLA-A*32:01 (setting [14]), with HLA-B*57:01 [1] (setting [14]) and in the assay with HLA-B*58:01 [2] (setting [14]) were 0.0359 µM, 0.00297 µM and 0.000824 µM, respectively.

TASLVMLLVH: the Kd in the assay with HLA-B*57:01 [1] (setting [15]) is 7.39 µM; with HLA-B*58:01 [2] (setting [15]) it was 1.35 µM.

As for HSSAAQRRGR, the figures for the dissociation constant (Kd) in the assay with HLA-B*57:01 [1] (setting [16]), in the assay with HLA-B*58:01 [2] (setting [16]) and with HLA-A*31:01 [3] were 0.0718 µM, 11.3 µM and 0.0241 µM, respectively.

What is called IC50 is the midpoint of a concentration-inhibition curve. A higher IC50 goes with weaker potency. Turning to KAIITPIVF, the figures for the concentration for half-maximal inhibition (IC50) with HLA-B*15:01 [4] (setting [17]) and with HLA-A*24:02 (setting [17]) were 15.7 µM and 11.1 µM, respectively.

For the sequence REINAHEGQ, the values for the Kd with HLA-B*44:02 (setting [18]), with HLA-B*18:01 (setting [18]) and in the assay with HLA-B*40:01 (setting [18]) were not below 20 µM, not below 20 µM and 0.147 µM, respectively.

Turning to SVRDRLARL, the dissociation constant Kd in the assay with HLA-A*02:01 [5] turned out to be 0.407 µM; with HLA-A*02:03, 0.0123 µM.

In the case of KTQAIDGEF, the results for the dissociation constant Kd in the assay with HLA-A*32:01 (setting [15]) and with HLA-B*58:01 [2] (setting [15]) were 0.64 µM and 0.287 µM, respectively.

Turning to ISFQQTNAM, the half-maximal inhibitory concentration (IC50) is 6.39 µM with HLA-A*02:01 [6] (setting [19]), 6.16 µM with HLA-B*15:01 [4] (setting [19]), 9.81 µM in the assay with HLA-A*24:02 (setting [19]) and not below 125 µM in the assay with HLA-A*11:01 [7].

For the sequence IHYAGWVSL, the dissociation constant (Kd) with HLA-A*02:01 [8] (setting [20]), with HLA-A*01:01 (setting [20]), with HLA-B*27:05 (setting [20]), in the assay with HLA-B*08:01, with HLA-A*69:01 (setting [20]) and in the assay with HLA-B*44:02 (setting [20]) was not below 20 µM in each case. Also, the equilibrium dissociation constant (Kd) was not below 20 µM with HLA-A*26:01; not below 20 µM in the assay with HLA-B*58:01 [9] (setting [20]); not below 20 µM with HLA-A*31:01 [10] (setting [20]); not below 20 µM with HLA-A*03:01 (setting [20]); not below 20 µM in the assay with HLA-A*11:01 [11] (setting [20]); 0.323 µM in the assay with HLA-B*07:02. In the assay with HLA-B*40:01 (setting [20]), this sequence displayed a Kd not below 20 µM.

As to ATGPILTLW, the results for the Kd with HLA-B*57:01 [1] (setting [15]) and in the assay with HLA-B*58:01 [2] (setting [15]) were 0.00807 µM and 0.0131 µM, respectively.

Regarding MSSEGAWKHA, the values for the Kd in the assay with HLA-B*57:01 [1] (setting [21]) and in the assay with HLA-B*58:01 [2] (setting [21]) were 0.134 µM and 0.254 µM, respectively.

In the case of VSRDFDDVY, the dissociation constant Kd with HLA-A*02:01 [8] (setting [22]) was not below 20 µM; with HLA-A*01:01 (setting [22]), 18.6 µM; in the assay with HLA-B*27:05 (setting [22]), not below 20 µM; with HLA-A*69:01 (setting [22]), not below 20 µM; in the assay with HLA-B*58:01 [9] (setting [22]), not below 20 µM; with HLA-B*48:01, not below 20 µM. The Kd with HLA-A*31:01 [10] (setting [22]) was not below 20 µM; with HLA-A*03:01 (setting [22]), not below 20 µM; in the assay with HLA-A*11:01 [11] (setting [22]), not below 20 µM; with HLA-B*40:01 (setting [22]), not below 20 µM; with HLA-B*15:01 [12] it was 0.244 µM; with HLA-B*57:01 [13], 0.792 µM. Also, the dissociation constant Kd in the assay with HLA-B*15:17 was not below 20 µM.

With FLVINRLGA, the IC50 was 0.795 µM with HLA-A*02:01 [6] (setting [23]) and not below 86.9 µM in the assay with HLA-B*15:01 [4] (setting [23]).
